B1: Kif1A-GFP (natural protein, rat, UniProt F1M4A4 1-1707, looked up)
chain: MAGASVKVAVRVRPFNSREMSRDSKCIIQMSGSTTTIVNPKQPKETPKSFSFDYSYWSHTSPEDINYASQKQVYRDIGEEMLQHAFEGYNVCIFAYGQTGAGKSYTMMGKQEKDQQGIIPQLCEDLFSRINDTTNDNMSYSVEVSYMEIYCERVRDLLNPKNKGNLRVREHPLLGPYVEDLSKLAVTSYNDIQDLMDSGNKARTVAATNMNETSSRSHAVFNIIFTQKRHDAETNITTEKVSKISLVDLAGSERADSTGAKGTRLKEGANINKSLTTLGKVISALAEMDSGPNKNKKKKKTDFIPYRDSVLTWLLRENLGGNSRTAMVAALSPADINYDETLSTLRYADRAKQIRCNAIINEDPNNKLIRELKDEVTRLRDLLYAQGLGDITDTNTVPGGPKLTNALVGMSPSSSLSALSSRAASVSSLHERILFAPGSEEAIERLKETEKIIAELNETWEEKLRRTEAIRMEREALLAEMGVAMREDGGTLGVFSPKKTPHLVNLNEDPLMSECLLYYIKDGVTRVGREDAERRQDIVLSGHFIKEEHCIFRSDSRGGGEAVVTLEPCEGADTYVNGKKVTEPSILRSGNRIIMGKSHVFRFNHPEQARQERERTPCAETPAEPVDWAFAQRELLEKQGIDMKQEMEQRLQELEDQYRREREEATYLLEQQRLDYESKLEALQKQMDSRYYPEVNEEEEEPEDEVQWTERECELALWAFRKWKWYQFTSLRDLLWGNAIFLKEANAISVELKKKVQFQFVLLTDTLYSPLPPDLLPPEAAKDRETRPFPRTIVAVEVQDQKNGATHYWTLEKLRQRLDLMREMYDRAAEVPSSVVEDCDNVVTGGDPFYDRFPWFRLVGRAFVYLSNLLYPVPLVHRVAIVSEKGEVKGFLRVAVQAISADEEAPDYGSGVRQSGTAKISFDDQHFEKFQSESCPVVGMSRSGTSQEELRIVEGQGQGADAGPSADEVNNNTCSAVPPEGLLDSPEKAALDGPLDTALDHLRLGSTFTFRVTVLQASSISAEYADIFCQFNFIHRHDEAFSTEPLKNTGRGPPLGFYHVQNIAVEVTKSFIEYIKSQPIVFEVFGHYQQHPFPPLCKDVLSPLRPSRRHFPRVMPLSKPVPATKLSTMTRPSPGPCHCKYDLLVYFEICELEANGDYIPAVVDHRGGMPCMGTFLLHQGIQRRITVTLLHETGSHIRWKEVRELVVGRIRNTPETDEALIDPNILSLNILSSGYVHPAQDDRQFLDSDIPRTFYQFEAAWDSSMHNSLLLNRVTPYREKIYMTLSAYIEMENCTQPAVITKDFCMVFYSRDAKLPASRSIRNLFGSGSLRATEGNRVTGVYELSLCHVADAGSPGMQRRRRRVLDTSVAYVRGEENLAGWRPRSDSLILDHQWELEKLSLLQEVEKTRHYLLLREKLETTQRPVPEVLSPASSEDSESRSSSGASSPLSAEGQPSPLEVPNERQRELAVKCLRLLMHTFNREYTHSHVCISASESKLSEMSVTLMRDPSMSPLGAATLTPSSTCPSLIEGRYGATDVRTPQPCSRPASPEPELLPELDSKKTPSPVRATETEKEPQRLLVPDIQEIRVSPIVSKKGYLHFLEPHTAGWAKRFVVVRRPYAYMYNSDKDTVERFVLNLSTAQVEYSEDQQAMLKTPNTFAVCTEHRGILLQANSDKDMHDWLYAFNPLLAGTIRSKLSRRRSAQMRV
B2: mCherry-tagged S135A Syt4 (phosphodeficient) (natural protein, rat, UniProt P50232 1-425, looked up)
chain: MAPITTSRVEFDEIPTVVGIFSAFGLVFTVSLFAWICCQRRSAKSNKTPPYKFVHVLKGVDIYPENLSSKKKFGGDDKSEAKRKAALPNLSLHLDLEKRDLNGNFPKTNPKAGSSSDLENVTPKLFPETEKEAVAPESLKSSTSLTSEEKQEKLGTLFLSLEYNFEKKAFVVNIKEAQGLPAMDEQSMTSDPYIKMTILPEKKHKVKTRVLRKTLDPVFDETFTFYGVPYPHIQELSLHFTVLSFDRFSRDDVIGEVLVPLSGIELSDGKMLMTREIIKRNAKKSSGRGELLVSLCYQSTTNTLTVVVLKARHLPKSDVSGLSDPYVKVNLYHAKKRISKKKTHVKKCTPNAVFNELFVFDIPCESLEEISVEFLVLDSERGSRNEVIGRLVLGATAEGSGGGHWKEICDFPRRQIAKWHMLCDG
B3: mCherry-tagged S135E Syt4 (phosphomimetic) (natural protein, rat, UniProt P50232 1-425, looked up)
chain: MAPITTSRVEFDEIPTVVGIFSAFGLVFTVSLFAWICCQRRSAKSNKTPPYKFVHVLKGVDIYPENLSSKKKFGGDDKSEAKRKAALPNLSLHLDLEKRDLNGNFPKTNPKAGSSSDLENVTPKLFPETEKEAVEPESLKSSTSLTSEEKQEKLGTLFLSLEYNFEKKAFVVNIKEAQGLPAMDEQSMTSDPYIKMTILPEKKHKVKTRVLRKTLDPVFDETFTFYGVPYPHIQELSLHFTVLSFDRFSRDDVIGEVLVPLSGIELSDGKMLMTREIIKRNAKKSSGRGELLVSLCYQSTTNTLTVVVLKARHLPKSDVSGLSDPYVKVNLYHAKKRISKKKTHVKKCTPNAVFNELFVFDIPCESLEEISVEFLVLDSERGSRNEVIGRLVLGATAEGSGGGHWKEICDFPRRQIAKWHMLCDG

Columns and labels:
[1] = target: Kif1A (Kif1A-GFP, GST-tagged full-length Kif1A) (UniProt F1M4A4); assay: co-IP with GFP-Trap beads, Syt4 blotted; settings: reference: S135A; sites S135
[2] = target: B2; assay: co-IP
[3] = target: B3; assay: co-IP
[4] = target: B1; assay: co-IP
[5] = target: T1, Recombinant His-tagged S135E Syt4 (rat, UniProt P50232 1-425, S135E); assay: pull-down
T1 sequence (looked up): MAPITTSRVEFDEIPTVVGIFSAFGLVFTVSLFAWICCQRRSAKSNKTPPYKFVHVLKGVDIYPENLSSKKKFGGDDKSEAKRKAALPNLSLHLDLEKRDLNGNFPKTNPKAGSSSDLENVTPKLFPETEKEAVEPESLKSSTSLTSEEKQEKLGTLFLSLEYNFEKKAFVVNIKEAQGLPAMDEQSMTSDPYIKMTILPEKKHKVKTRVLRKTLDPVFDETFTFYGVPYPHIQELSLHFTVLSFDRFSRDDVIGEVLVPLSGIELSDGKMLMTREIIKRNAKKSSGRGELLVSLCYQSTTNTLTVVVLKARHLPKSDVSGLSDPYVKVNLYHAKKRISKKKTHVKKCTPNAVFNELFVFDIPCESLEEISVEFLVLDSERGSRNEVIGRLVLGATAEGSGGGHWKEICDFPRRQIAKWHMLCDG

Synaptotagmin-4 (Syt4) (from UniProt P50232) S135E
other: percent of WT [1]: weaker; reference 134.4 ± 11.1

B1
amount co-immunoprecipitated, percent of WT [2]: 158 % of WT
amount co-immunoprecipitated, percent of WT [3]: 87 % of WT

B2
amount co-immunoprecipitated, percent of WT [4]: 134 % of WT

B3
amount co-immunoprecipitated, percent of WT [4]: 42.9 % of WT

B4: endogenous Kif1A (natural protein, UniProt P33173 1-1695, looked up)
chain: MAGASVKVAVRVRPFNSREMSRDSKCIIQMSGSTTTIVNPKQPKETPKSFSFDYSYWSHTSPEDINYASQKQVYRDIGEEMLQHAFEGYNVCIFAYGQTGAGKSYTMMGKQEKDQQGIIPQLCEDLFSRINDTTNDNMSYSVEVSYMEIYCERVRDLLNPKNKGNLRVREHPLLGPYVEDLSKLAVTSYNDIQDLMDSGNKPRTVAATNMNETSSRSHAVFNIIFTQKRHDAETNITTEKVSKISLVDLAGSERADSTGAKGTRLKEGANINKSLTTLGKVISALAEMDSGPNKNKKKKKTDFIPYRDSVLTWLLRENLGGNSRTAMVAALSPADINYDETLSTLRYADRAKQIRCNAIINEDPNNKLIRELKDEVTRLRDLLYAQGLGDITDMTNALVGMSPSSSLSALSSRAASVSSLHERILFAPGSEEAIERLKETEKIIAELNETWEEKLRRTEAIRMEREALLAEMGVAMREDGGTLGVFSPKKTPHLVNLNEDPLMSECLLYYIKDGVTRVGREDAERRQDIVLSGHFIKEEHCIFRSDSRGGGEAVVTLEPCEGADTYVNGKKVTEPSILRSGNRIIMGKSHVFRFNHPEQARQERERTPCAETPAEPVDWAFAQRELLEKQGIDMKQEMEQRLQELEDQYRREREEATYLLEQQRLDYESKLEALQKQMDSRYYPEVNEEEEEPEDEVQWTERECELALWAFRKWKWYQFTSLRDLLWGNAIFLKEANAISVELKKKVQFQFVLLTDTLYSPLPPDLLPPEAAKDRETRPFPRTIVAVEVQDQKNGATHYWTLEKLRQRLDLMREMYDRAAEVPSSVVEDCDNVVTGGDPFYDRFPWFRLVGRAFVYLSNLLYPVPLVHRVAIVSEKGEVKGFLRVAVQAISADEEAPDYGSGVRQSGTAKISFDDQHFEKFQSESCPVVGMSRSGTSQEELRIVEGQGQGADAGPSADEVNNNTCSAVPPEGLMDSPEKAALDGPLDTALDHLRLGSTFTFRVTVLQASSISAEYADIFCQFNFIHRHDEAFSTEPLKNTGRGPPLGFYHVQNIAVEVTKSFIEYIKSQPIVFEVFGHYQQHPFPPLCKDVLSPLRPSRRHFPRVMPLSKPVPATKLSTMTRPSPGPCHCKYDLLVYFEICELEANGDYIPAVVDHRGACMGTFLLHQGIQRRITVTLLHETGSHIRWKEVRELVVGRIRNTPETDEALIDPNILSLNILSSGYVHPAQDDRVFFGNDTRTFYQFEAAWDSSMHNSLLLNRVTPYREKIYMTLSAYIEMENCTQPAVITKDFCMVFYSRDAKLPASRSIRNLFGSGSLRATEGNRVTGVYELSLCHVADAGSPGMQRRRRRVLDTSVAYVRGEENLAGWRPRSDSLILDHQWELEKLSLLQEVEKTRHYLLLREKLETTQRPGPEVLSPASSEDSESRSSSGASSPLSAEGQPSPLEAPNERQRELAVKCLRLLMHTFNREYTHSHVCISASESKLSEMSVTLMRDPSMSPLGAATLTPSSTCPSLIEGRYGATDVRTPQPCSRPASPEPELLPELDSKKTPSPVRATETEKEPQRLLVPDIQEIRVSPIVSKKGYLHFLEPHTAGWAKRFVVVRRPYAYMYNSDKDTVERFVLNLSTAQVEYSEDQQAMLKTPNTFAVCTEHRGILLQANSDKDMHDWLYAFNPLLAGTIRSKLSRRRSAQMRV
amount pulled down, percent of WT [5]: 43.6 % of WT

— article PMC5714612 (Cell Reports, 2017)
